Assay results taken from patent US20090304581A1.

Target: CD20 on Daudi cells (human) (UniProt P11836)
Experiment: live-cell radioimmunoreactivity assay on Daudi cells, cell pellet cpm over total cpm

Sequence of UniProt P11836 (P11836 whole entry): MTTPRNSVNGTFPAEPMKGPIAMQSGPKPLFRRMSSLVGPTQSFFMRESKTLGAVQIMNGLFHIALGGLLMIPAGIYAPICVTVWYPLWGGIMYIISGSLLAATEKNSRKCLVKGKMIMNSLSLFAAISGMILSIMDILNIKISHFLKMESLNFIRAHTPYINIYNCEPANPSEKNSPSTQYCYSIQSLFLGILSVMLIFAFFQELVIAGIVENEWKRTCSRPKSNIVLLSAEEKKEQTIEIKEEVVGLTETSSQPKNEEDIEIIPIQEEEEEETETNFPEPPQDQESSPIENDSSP

maximum binding (immunoreactive fraction): 29%
Substance: SWNT-rituximab-111In*DOTA (antibody)
